Values quoted from earlier work, collected in US8536129B2, “Treatment for anxiety” (NoNO Inc., priority 2007, dated 2013).

Biological target: N-type calcium channels (Homo sapiens, UniProt Q00975)
Conditions: reported in co-pending application 60/904,507

N-type calcium channels, sequence (Q00975 whole entry): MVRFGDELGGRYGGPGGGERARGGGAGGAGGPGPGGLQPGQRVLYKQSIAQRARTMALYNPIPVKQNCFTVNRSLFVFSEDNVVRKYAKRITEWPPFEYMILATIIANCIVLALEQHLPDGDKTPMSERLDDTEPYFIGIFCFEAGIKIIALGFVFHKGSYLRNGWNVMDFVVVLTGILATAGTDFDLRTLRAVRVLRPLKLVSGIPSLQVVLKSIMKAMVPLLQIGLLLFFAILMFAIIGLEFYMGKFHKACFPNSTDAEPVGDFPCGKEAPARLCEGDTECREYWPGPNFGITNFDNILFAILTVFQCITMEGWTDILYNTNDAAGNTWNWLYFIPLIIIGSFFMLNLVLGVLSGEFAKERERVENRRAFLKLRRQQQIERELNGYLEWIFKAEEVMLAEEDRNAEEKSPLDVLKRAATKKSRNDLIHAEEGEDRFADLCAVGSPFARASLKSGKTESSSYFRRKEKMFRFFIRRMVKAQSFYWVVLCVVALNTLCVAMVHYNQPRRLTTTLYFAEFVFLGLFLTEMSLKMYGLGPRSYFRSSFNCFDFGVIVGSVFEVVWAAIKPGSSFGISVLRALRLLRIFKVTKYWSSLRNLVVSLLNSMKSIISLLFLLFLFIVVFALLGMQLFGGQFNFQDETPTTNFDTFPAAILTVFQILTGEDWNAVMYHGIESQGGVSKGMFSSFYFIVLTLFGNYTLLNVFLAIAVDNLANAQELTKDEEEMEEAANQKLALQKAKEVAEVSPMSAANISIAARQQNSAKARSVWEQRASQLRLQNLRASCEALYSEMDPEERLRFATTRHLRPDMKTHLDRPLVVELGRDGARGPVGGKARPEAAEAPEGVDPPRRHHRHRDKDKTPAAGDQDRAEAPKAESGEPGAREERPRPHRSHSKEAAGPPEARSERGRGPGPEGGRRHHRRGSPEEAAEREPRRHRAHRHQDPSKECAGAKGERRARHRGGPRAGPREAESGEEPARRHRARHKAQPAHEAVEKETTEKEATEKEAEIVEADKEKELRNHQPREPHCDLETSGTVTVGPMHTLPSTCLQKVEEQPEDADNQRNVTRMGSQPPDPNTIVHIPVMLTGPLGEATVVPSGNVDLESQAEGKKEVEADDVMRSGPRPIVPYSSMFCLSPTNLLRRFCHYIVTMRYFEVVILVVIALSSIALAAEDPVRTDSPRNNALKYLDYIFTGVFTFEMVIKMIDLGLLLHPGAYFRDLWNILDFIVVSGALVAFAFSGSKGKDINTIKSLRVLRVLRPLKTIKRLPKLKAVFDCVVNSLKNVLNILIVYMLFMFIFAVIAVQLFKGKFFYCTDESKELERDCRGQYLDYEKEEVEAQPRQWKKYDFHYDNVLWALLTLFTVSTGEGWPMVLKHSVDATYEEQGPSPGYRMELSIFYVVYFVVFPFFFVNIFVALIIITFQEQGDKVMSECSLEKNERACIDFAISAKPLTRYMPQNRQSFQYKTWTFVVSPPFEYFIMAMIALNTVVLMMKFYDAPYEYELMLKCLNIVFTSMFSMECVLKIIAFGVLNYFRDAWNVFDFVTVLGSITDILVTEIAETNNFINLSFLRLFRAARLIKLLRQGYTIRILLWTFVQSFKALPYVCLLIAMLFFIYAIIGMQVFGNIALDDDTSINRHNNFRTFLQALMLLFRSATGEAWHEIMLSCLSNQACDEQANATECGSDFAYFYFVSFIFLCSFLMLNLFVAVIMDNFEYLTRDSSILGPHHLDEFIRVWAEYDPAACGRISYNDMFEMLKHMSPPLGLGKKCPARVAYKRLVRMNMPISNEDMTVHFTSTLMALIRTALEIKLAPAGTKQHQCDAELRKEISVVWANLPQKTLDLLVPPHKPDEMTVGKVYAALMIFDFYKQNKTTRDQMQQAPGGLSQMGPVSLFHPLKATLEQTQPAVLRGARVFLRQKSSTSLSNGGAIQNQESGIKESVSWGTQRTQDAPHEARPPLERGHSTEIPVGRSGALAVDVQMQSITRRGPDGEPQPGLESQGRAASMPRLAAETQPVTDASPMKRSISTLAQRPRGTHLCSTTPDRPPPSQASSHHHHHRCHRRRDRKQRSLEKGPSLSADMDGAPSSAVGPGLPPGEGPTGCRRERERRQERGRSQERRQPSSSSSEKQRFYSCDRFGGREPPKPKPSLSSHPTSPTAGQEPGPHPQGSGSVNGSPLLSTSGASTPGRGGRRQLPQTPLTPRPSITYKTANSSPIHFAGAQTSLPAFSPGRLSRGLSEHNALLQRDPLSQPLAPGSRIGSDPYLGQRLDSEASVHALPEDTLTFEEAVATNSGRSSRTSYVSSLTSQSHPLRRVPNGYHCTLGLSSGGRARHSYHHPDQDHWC

## YGRKKRRQRRR [standard tat peptide]
  binding to and inhibition of N-type calcium channels: binds to and inhibits N-type calcium channels
